Measurements taken from patent publication US20100135996A1 (INSTITUT NATIONAL DE LA SANTE ET DE LA RECHERCHE MEDICALE …, published 2010).

Molecular target: T1, human Anti-Mullerian Hormone type II receptor (AMHR-II) (human, UniProt Q16671 18-573)
T1 construct: whole, on cells; In the western blot it was the same protein in reduced SDS-PAGE lysates of xenografts of these cells; also called hAMHR-II
T1 sequence (looked up): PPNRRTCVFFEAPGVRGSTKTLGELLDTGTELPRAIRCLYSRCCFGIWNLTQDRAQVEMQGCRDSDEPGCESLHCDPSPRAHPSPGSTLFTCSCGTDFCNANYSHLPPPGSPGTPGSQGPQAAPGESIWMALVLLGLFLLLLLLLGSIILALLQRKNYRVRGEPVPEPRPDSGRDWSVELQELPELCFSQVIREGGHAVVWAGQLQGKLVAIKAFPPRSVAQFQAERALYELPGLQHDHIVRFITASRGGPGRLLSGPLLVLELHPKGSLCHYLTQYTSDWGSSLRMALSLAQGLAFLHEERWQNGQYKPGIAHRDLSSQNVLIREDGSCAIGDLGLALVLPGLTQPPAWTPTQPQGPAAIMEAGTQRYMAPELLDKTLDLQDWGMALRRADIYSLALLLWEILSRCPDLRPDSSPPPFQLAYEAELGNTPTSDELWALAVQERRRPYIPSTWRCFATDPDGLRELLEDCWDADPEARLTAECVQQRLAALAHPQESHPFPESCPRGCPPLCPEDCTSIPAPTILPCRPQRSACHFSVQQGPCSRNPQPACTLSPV
Experiment: flow cytometry of hybridoma supernatants on AMHR-II positive cells

binding result: binds
B1: anti-AMHR-II mAb 12G4 (antibody, mouse IgG1, V domains shown)
VH: QVQLQQSGPELVKPGASVRMSCKASGYTFTSYHIHWVKQRPGQGLEWIGWIYPGDDSTKYNEKFKGKTTLTADKSSSTAYMLLSSLTSEDSAIYFCTRGDRFAYWGQGTLVTVSA
VL: QIVLTQSPAIMSASLGEGITLTCSASSSVRYIHWYQQKSGTSPKLLIYSTSNLASGVPSRFSGSGSGTFHSLTISSVEAEDAADYYCLQWSSYPWTFGGGTKLEIK
notes: also called antibody of hybridoma CNCM I-3673
